In publication PMC9997659, “TLN1 contains a cancer-associated cassette exon that alters talin-1 mechanosensitivity” (The Journal of Cell Biology, 2023):
Values joined by “and” are separate entries in the source; they are usually repeats but may differ in a detail not shown here. Equal entries are not always repeated.

Columns and labels:
[1] = molecular target: Human talin-1 R1R2-17b (residues 482-786 + additional 17 residues of exon 17b) (human) (UniProt Q9Y490); assay: SEC; analytical gel filtration, Superdex 200 Increase 10/300 GL, run at room temperature; VD1 preincubated with talin R1R2 at a 3:1 ratio for 1 h at 37°C; 100 µl, 100-400 µM protein
[2] = molecular target: T1, Human talin-1 R1R2-WT (residues 482-786) (human, UniProt Q9Y490 482-786); assay: NMR titration; 1H,15N TROSY spectra of 100 µM R1R2 alone and with 300 µM RIAM peptide; 50 mM NaCl, 15 mM NaH2PO4, 6 mM Na2HPO4, 2 mM DTT, pH 6.5, 298K; conditions: both partners purified
T1 construct: talin-1 (TLN1), human, rod domains R1 and R2, residues 482-786 of the 2,541 amino acid protein; codon optimized synthetic gene in pET151; also called wild-type R1R2; talin R1R2-WT; source: E. coli BL21(DE3)*, purified (Nickel-NTA, TEV cleavage, HiTrap Q)
T1 sequence (Q9Y490 482-786): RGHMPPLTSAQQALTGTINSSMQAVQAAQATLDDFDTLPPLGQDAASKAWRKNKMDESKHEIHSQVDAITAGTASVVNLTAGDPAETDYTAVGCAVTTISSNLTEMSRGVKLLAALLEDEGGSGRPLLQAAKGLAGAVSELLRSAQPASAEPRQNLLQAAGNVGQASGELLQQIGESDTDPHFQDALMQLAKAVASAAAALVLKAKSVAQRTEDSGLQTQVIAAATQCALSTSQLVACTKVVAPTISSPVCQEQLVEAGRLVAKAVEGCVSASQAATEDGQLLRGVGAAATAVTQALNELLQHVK

stoichiometry N (vinculin per talin) [1]	binding result [2]	Molecule
2 and 3	–	Vinculin domain 1 (VD1) (from UniProt P18206 1-258) (domain or fragment)
–	binds	SEDIDQMFSTLLGEMDLLTQSLGVDTC (RIAM (Rap1-effector), residues 4-30 as printed; source: synthetic peptide (GLBiochem)) [RIAM peptide (residues 4-30)]
